Measured values from the nanobody polyreactivity screen of Harvey et al. (2022).

Assay: yeast display, Sf9 membrane polyspecificity reagent, FACS + sequencing; frameworks hold sequencing errors
Method in brief: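 Polyreactivity labels are assigned by the sorting gate from which each nanobody was recovered. The gates were low and high (top ~1%), set on anti-HA fluorescence for expression and streptavidin fluorescence for reagent binding. Before sorting, galactose-induced (36–48 hours) yeast display cells were stained for 1 hour at 4 °C with 10% biotinylated, detergent-solubilized Sf9 membrane reagent.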

Sequence	polyreactivity (PSR sort gate)
QVQLVESGGGLVQAGGRLRLSCAASGLTYTRYTMGWYRPAPGKERELVAAITSSGGSTYYADSVKGRFTISRDNAKNTVFLQMNSLKPEDTAVYFCAARYPGTRGDGYWGQGTQVTVSS	high polyreactivity
QVQLVESGGGLVQAGGRLRLSCAASGNIFYPNAMGWYRQAPGKERELVAAISSSGGSTYYADSVKGRFTISRDNAKNTVYLQMNSLKPEDTAVYYCAKDRSYAYYWWPYPTGYDYWGQGTQVTVSS	low polyreactivity
QVQLVESGGGLVQAGGRLRLSCAASGRIFGWIAMGWSRQAPGKDRELVAAISADGNTYSADSVKGRFTISRDNAKNTVYVQKNSLKPEDTAVSYCAAESWSADFSWYDYWGQGTQVTVSS	high polyreactivity
QVQLVESGGGLVQAGGRLRLSCAASGRIFPYYAMGWYRQAPGKEREFVAAITSSGGSTYYADSVKGRFTISRDNAKYTVYLQMNSLIPEDSAVYYCFAVRHFGLYAGRPYDYWGQGTQVTVSS	low polyreactivity
QVQLVESGGGLVQAGGRLRLSCAASGRIFSQYSMGWYRQAPGKERELVAAISSRGGRTYYADSVKGRFTFSRDNAKNTVYLQMNSLKPEDTAVYYCAAYVYPWGRDYWGQGTQVTVSS	high polyreactivity
QVQLVESGGGLVQAGGRLRLSCAASGRIFSYNAMGWYRQAPGKERELVAGITSGGRTYYADSVKGRFTISRDNAKNTVYLQMNSLKPEDTAVYYCAARYVPARTRYYYWGQGTQVTVSS	high polyreactivity
QVQLVESGGGLVQAGGRLRLSCAASGRIFVHNAMGWYRQAPGKERELVAAISQNGGRTYYADSVKGRFTISRDNAKNTVYLQLNSLKPEDTAVYYCAAGQARAGLIGGYWGQGTQVTVSS	high polyreactivity
QVQLVESGGGLVQAGGRLRLSCAASGRIFVIKSMGWYRQAPAKERELVAAISKRGGSTYYADSVKGRFTISRDNAKNTVYLQMNSLKPEDTAVYYCAARFKTTGYDYWGQGTQVTVSS	high polyreactivity
QVQLVESGGGLVQAGGRLRLSCAASGRIFVYNAMGWYRQAPGKERELVAAINYRGTRTYYADSVKGRFTISRDNAKNTVYLQLNSLKPEDTAVYYCATYLVTGGGLNVRYDYWGQGTQVTVSS	high polyreactivity
QVQLVESGGGLVQAGGRLRLSCAASGRTFAFYTMGWYRQAPGKEREFVAAISWSGGSTHYADSVKGRFTISRDNAKNTVYLQMNSLKPEDTAVYYCDAGPFYRFTDGRYKTLDYWGQGTQVTVSS	high polyreactivity
QVQLVESGGGLVQAGGRLRLSCAASGRTFDTNAMGWYRQAPGKQRELVAVITARGGNTSYADSVKGRFTISRDYAKNTVYLLMNRLKPEDTAVYLCAARVYRAPWTYVEGNYWGQGTQVTVSS	low polyreactivity
QVQLVESGGGLVQAGGRLRLSCAASGRTFDVYAMVWYRQAPGKERELVAAISKRGGSTYYADSVKGRFTISRDNAKNTVYLQMNSLKPEDTAVYYCNAYQTGWKGYDYWGQGTQVTVSS	high polyreactivity
QVQLVESGGGLVQAGGRLRLSCAASGRTFGPNVMGWYRQAPGKERELVAAITSGGTTYYADSVKGRFTISRDNAKNTVYLQMTSLIPADTAVYYCAATFYPYQVHHYYYWGQGTQVTVSS	low polyreactivity
QVQLVESGGGLVQAGGRLRLSCAASGRTFHYYALGWYRQATGKERELVAVIRYSGGRTYYADTVKGRFTISRDNAKNTVYLQMNSLKPEDTAVYYCNKGRWRTDPPVYLIAFDYWGQGTQVTVSS	low polyreactivity
QVQLVESGGGLVQAGGRLRLSCAASGRTFLYYAMGWSRQAPGKERELVAAINWRGTRTYYADSVKGRFTISRDNAQNTVYLQMNSLKPEDTAVYYCNRQGPDFHLRAGQGNYWGQGTQVTVSS	high polyreactivity
QVQLVESGGGLVQAGGRLRLSCAASGRTFRYYGMGWYRQAPWKERELVAAISWSGGSTYYADSVKGRFTISRDNAKNTVYLQMNSLTPEDTAVYYCNVDFHWQRFHHKSAAYDYWGQGTQVTVSS	high polyreactivity
QVQLVESGGGLVQAGGRLRLSCAASGRTFSPYAMGWYREAPGKEREFVAASTWSAGRTYYADSVKGRFTISRDNAKNTVYLQMNSLKPEDTAVYYCNARDRSITYPRYDYWGQGTQVTVSS	high polyreactivity
QVQLVESGGGLVQAGGRLRLSCAASGRTFYGFAMGWYRQAPGKERELVASISRDGSTNYADSVKGRFTISRDNAKNTVYLQMNSLKPEDNAVYYCAADIWYYRYPIYYYSYDYWGQGTQVTVSS	low polyreactivity
QVQLVESGGGLVQAGGRLRLSCAASGRTFYGYAMGWYSPAPGKERELVAAITNGGRTYYADSVKGRFTISRDNAKNTVYLQMNSLKPEATAVYYCAAGPGRGRSTLGSYYWGQGTQVTVSS	high polyreactivity
QVQLVESGGGLVQAGGRLRLSCAASGRTFYYYAMGWYRQAPGKERELVAAISWSGGRTYYADSVKGRFTISRDNAKNTVYLQMNSLKPEDTAVYYCNAETAAAQASYDRLDVLLDYWGQGTQVTVSS	low polyreactivity
QVQLVESGGGLVQAGGRLRLSCAASGRTIANYAMGWYRQAPGKERELVAAISFSTVSTYYADSVKGRFTISRDNAKNTVYLQMNSLKPEDTAVYYCAARRLGYYRKVKELDYWGQGTQVTVSS	high polyreactivity
